Reference: publication PMC7397735 (NAR Cancer, 2020)

Biological target: POLQ-FLAG (DNA polymerase θ) (human, UniProt O75417 1-2590)
Test: co-IP

Chain of POLQ-FLAG (DNA polymerase θ) (O75417 whole entry): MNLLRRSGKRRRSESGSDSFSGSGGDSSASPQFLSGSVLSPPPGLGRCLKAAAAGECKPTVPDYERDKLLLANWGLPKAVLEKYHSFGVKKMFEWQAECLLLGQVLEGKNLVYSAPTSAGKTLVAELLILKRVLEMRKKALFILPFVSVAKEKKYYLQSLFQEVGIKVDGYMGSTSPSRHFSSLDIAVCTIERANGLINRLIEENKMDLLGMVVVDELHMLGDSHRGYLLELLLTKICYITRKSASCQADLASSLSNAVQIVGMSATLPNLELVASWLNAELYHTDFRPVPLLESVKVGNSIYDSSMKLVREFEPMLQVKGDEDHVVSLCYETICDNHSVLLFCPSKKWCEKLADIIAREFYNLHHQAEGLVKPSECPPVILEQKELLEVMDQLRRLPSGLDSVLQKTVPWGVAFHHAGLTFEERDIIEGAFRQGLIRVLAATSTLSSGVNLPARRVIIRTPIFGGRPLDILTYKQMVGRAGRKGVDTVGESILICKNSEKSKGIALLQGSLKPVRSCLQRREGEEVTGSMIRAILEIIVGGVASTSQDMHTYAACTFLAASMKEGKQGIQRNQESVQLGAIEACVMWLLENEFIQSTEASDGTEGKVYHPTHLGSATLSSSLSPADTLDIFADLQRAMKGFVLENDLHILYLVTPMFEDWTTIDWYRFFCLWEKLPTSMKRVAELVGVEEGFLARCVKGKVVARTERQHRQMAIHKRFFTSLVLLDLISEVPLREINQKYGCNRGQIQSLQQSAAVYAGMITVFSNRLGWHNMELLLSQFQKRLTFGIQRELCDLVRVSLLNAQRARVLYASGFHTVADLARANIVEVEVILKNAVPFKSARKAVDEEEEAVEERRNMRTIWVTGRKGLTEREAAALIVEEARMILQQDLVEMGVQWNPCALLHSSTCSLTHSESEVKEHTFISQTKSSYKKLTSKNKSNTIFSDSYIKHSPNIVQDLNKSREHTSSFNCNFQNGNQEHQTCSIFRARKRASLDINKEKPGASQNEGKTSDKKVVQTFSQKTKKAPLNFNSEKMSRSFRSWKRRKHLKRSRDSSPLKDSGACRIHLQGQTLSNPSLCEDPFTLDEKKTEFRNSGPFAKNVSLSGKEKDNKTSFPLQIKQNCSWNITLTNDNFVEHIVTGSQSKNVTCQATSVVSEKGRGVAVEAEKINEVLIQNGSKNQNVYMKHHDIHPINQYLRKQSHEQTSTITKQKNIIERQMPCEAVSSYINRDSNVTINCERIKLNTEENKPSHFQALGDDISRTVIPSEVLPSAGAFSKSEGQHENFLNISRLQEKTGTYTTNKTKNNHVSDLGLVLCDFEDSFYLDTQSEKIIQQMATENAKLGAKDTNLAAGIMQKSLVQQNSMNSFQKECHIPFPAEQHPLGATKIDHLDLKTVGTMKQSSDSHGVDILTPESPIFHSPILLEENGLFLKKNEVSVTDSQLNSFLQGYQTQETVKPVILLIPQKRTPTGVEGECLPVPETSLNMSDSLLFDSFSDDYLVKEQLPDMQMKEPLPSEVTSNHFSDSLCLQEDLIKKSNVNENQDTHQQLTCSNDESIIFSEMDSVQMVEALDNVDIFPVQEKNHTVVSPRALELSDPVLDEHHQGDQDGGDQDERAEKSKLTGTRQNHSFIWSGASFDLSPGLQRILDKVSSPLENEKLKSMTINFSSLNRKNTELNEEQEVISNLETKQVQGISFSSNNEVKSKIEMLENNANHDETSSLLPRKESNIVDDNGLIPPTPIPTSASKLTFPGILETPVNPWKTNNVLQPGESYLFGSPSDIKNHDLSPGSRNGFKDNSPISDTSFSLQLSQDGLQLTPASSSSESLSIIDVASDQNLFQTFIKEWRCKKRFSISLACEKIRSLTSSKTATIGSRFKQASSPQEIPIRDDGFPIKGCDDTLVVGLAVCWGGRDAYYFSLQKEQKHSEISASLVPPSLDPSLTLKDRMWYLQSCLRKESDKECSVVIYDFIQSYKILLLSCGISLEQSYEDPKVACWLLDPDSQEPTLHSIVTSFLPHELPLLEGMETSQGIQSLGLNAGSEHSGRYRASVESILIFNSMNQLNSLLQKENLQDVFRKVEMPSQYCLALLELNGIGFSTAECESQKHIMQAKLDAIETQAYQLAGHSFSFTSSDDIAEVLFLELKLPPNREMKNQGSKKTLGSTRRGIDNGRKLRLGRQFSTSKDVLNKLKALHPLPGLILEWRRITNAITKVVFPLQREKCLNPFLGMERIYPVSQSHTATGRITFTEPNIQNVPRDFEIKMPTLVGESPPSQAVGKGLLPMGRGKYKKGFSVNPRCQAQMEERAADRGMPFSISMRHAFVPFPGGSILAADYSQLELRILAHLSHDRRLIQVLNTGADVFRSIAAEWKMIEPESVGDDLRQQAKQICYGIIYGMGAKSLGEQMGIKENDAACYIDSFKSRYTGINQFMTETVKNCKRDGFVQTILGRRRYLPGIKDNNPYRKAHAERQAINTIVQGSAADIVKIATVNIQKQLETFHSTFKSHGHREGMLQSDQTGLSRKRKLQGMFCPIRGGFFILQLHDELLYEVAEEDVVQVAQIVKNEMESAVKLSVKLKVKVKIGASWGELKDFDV

fold level in POLQ-FLAG IP, BRCA2-deficient over BRCA2-proficient cells: ~4 fold
B1: MRE11 (natural protein, human (endogenous in U2OS), UniProt P49959 1-708, looked up)
chain: MSTADALDDENTFKILVATDIHLGFMEKDAVRGNDTFVTLDEILRLAQENEVDFILLGGDLFHENKPSRKTLHTCLELLRKYCMGDRPVQFEILSDQSVNFGFSKFPWVNYQDGNLNISIPVFSIHGNHDDPTGADALCALDILSCAGFVNHFGRSMSVEKIDISPVLLQKGSTKIALYGLGSIPDERLYRMFVNKKVTMLRPKEDENSWFNLFVIHQNRSKHGSTNFIPEQFLDDFIDLVIWGHEHECKIAPTKNEQQLFYISQPGSSVVTSLSPGEAVKKHVGLLRIKGRKMNMHKIPLHTVRQFFMEDIVLANHPDIFNPDNPKVTQAIQSFCLEKIEEMLENAERERLGNSHQPEKPLVRLRVDYSGGFEPFSVLRFSQKFVDRVANPKDIIHFFRHREQKEKTGEEINFGKLITKPSEGTTLRVEDLVKQYFQTAEKNVQLSLLTERGMGEAVQEFVDKEEKDAIEELVKYQLEKTQRFLKERHIDALEDKIDEEVRRFRETRQKNTNEEDDEVREAMTRARALRSQSEESASAFSADDLMSIDLAEQMANDSDDSISAATNKGRGRGRGRRGGRGQNSASRGGSQRGRADTGLETSTRSRNSKTAVSASRNMSIIDAFKSTRQQPSRNVTTKNYSEVIEVDESDVEEDIFPTTSKTDQRWSSTSSSKIMSQSQVSKGVDFESSEDDDDDPFMNTSSLRRNRR
